# Assay results taken from publication PMC10586780 (Biochemical Journal, 2023).
# Positions count from the first letter of the chain named. In names and notes the source's numbering stands. Several values for one entry are separate records, joined by “and”; a condition that tells them apart may be missing. Equal values may be shown once.
# B1: human platelet phosphofructokinase-1 with the cancer-associated mutation D564N (PFKP-D564N), recombinant (enzyme, UniProt Q01813-1 1-784, looked up)
# chain: MDADDSRAPKGSLRKFLEHLSGAGKAIGVLTSGGDAQGMNAAVRAVVRMGIYVGAKVYFIYEGYQGMVDGGSNIAEADWESVSSILQVGGTIIGSARCQAFRTREGRLKAACNLLQRGITNLCVIGGDGSLTGANLFRKEWSGLLEELARNGQIDKEAVQKYAYLNVVGMVGSIDNDFCGTDMTIGTDSALHRIIEVVDAIMTTAQSHQRTFVLEVMGRHCGYLALVSALACGADWVFLPESPPEEGWEEQMCVKLSENRARKKRLNIIIVAEGAIDTQNKPITSEKIKELVVTQLGYDTRVTILGHVQRGGTPSAFDRILASRMGVEAVIALLEATPDTPACVVSLNGNHAVRLPLMECVQMTQDVQKAMDERRFQDAVRLRGRSFAGNLNTYKRLAIKLPDDQIPKTNCNVAVINVGAPAAGMNAAVRSAVRVGIADGHRMLAIYDGFDGFAKGQIKEIGWTDVGGWTGQGGSILGTKRVLPGKYLEEIATQMRTHSINALLIIGGFEAYLGLLELSAAREKHEEFCVPMVMVPATVSNNVPGSDFSIGADTALNTITDTCNRIKQSASGTKRRVFIIETMGGYCGYLANMGGLAAGADAAYIFEEPFDIRDLQSNVEHLTEKMKTTIQRGLVLRNESCSENYTTDFIYQLYSEEGKGVFDCRKNVLGHMQQGGAPSPFDRNFGTKISARAMEWITAKLKEARGRGKKFTTDDSICVLGISKRNVIFQPVAELKKQTDFEHRIPKEQWWLKLRPLMKILAKYKASYDVSDSGQLEHVQPWSV
# B2: human liver phosphofructokinase-1 (PFKL), wild type, recombinant (enzyme)
# chain: MAAVDLEKLRASGAGKAIGVLTSGGDAQGMNAAVRAVTRMGIYVGAKVFLIYEGYEGLVEGGENIKQANWLSVSNIIQLGGTIIGSARCKAFTTREGRRAAAYNLVQHGITNLCVIGGDGSLTGANIFRSEWGSLLEELVAEGKISETTARTYSHLNIAGLVGSIDNDFCGTDMTIGTDSALHRIMEVIDAITTTAQSHQRTFVLEVMGRHCGYLALVSALASGADWLFIPEAPPEDGWENFMCERLGETRSRGSRLNIIIIAEGAIDRNGKPISSSYVKDLVVQRLGFDTRVTVLGHVQRGGTPSAFDRILSSKMGMEAVMALLEATPDTPACVVTLSGNQSVRLPLMECVQMTKEVQKAMDDKRFDEATQLRGGSFENNWNIYKLLAHQKPPKEKSNFSLAILNVGAPAAGMNAAVRSAVRTGISHGHTVYVVHDGFEGLAKGQVQEVGWHDVAGWLGRGGSMLGTKRTLPKGQLESIVENIRIYGIHALLVVGGFEAYEGVLQLVEARGRYEELCIVMCVIPATISNNVPGTDFSLGSDTAVNAAMESCDRIKQSASGTKRRVFIVETMGGYCGYLATVTGIAVGADAAYVFEDPFNIHDLKVNVEHMTEKMKTDIQRGLVLRNEKCHDYYTTEFLYNLYSSEGKGVFDCRTNVLGHLQQGGAPTPFDRNYGTKLGVKAMLWLSEKLREVYRKGRVFANAPDSACVIGLKKKAVAFSPVTELKKDTDFEHRMPREQWWLSLRLMLKMLAQYRISMAAYVSGELEHVTRRTLSMDKGF
# B3: human liver phosphofructokinase-1 with the cancer-associated mutation D553N (PFKL-D553N), recombinant (enzyme)
# chain: B2 chain with D553N
# Biological target: the molecule itself
# Experiment: native gel or EMSA
row,Protein,stoichiometry N
1,B1,4
2,B2,4 and > 4
3,B3,4
